Data from PMC11890623, “Pseudomonas aeruginosa acyl-CoA dehydrogenases and structure-guided inversion of their substrate specificity” (Nature Communications, 2025).
One block for each substance: values may come before it.

Assays:
[1] = molecular target: FadE1 (PA0506), fatty acyl-CoA dehydrogenase of Pseudomonas aeruginosa (Pseudomonas aeruginosa PAO1); test: AUC; sedimentation at 50000 rpm, 20 °C; protein at 1 mg/mL in 20 mM Tris-HCl, 100 mM NaCl, 10 mM imidazole (pH 7.5); absorbance and interference scans; analysis with SEDFIT; His6 tags removed
[2] = molecular target: FadE2 (PA0508), fatty acyl-CoA dehydrogenase of Pseudomonas aeruginosa (Pseudomonas aeruginosa PAO1); test: as above
[3] = test system: T1, CCCCCCCC(=O)SCCNC(=O)CCNC(=O)[C@H](O)C(C)(C)COP(=O)(O)OP(=O)(O)OC[C@H]1O[C@@H](n2cnc3c(N)ncnc32)[C@H](O)[C@@H]1OP(=O)(O)O; test: purified protein; assay type: biochemical, Pseudomonas aeruginosa; settings: FAD sandwiched between catalytic Glu441 and the FAD
T1 construct: full-length ORF, His6 tag removed by TEV

[4] = test system: T2, CCCCCCCCCCCCCCCC(=O)SCCNC(=O)CCNC(=O)[C@H](O)C(C)(C)COP(=O)(O)OP(=O)(O)OC[C@H]1O[C@@H](n2cnc3c(N)ncnc32)[C@H](O)[C@@H]1OP(=O)(O)O; test: Michaelis-Menten kinetics of purified enzyme (KM); assay type: biochemical, Pseudomonas aeruginosa; settings: FAD
T2 construct: full-length ORF, His6 tag removed by TEV

stoichiometry N [1]: 2
Substance: FadE1 (PA0506), fatty acyl-CoA dehydrogenase of Pseudomonas aeruginosa (enzyme)

stoichiometry N [2]: 2
Substance: FadE2 (PA0508), fatty acyl-CoA dehydrogenase of Pseudomonas aeruginosa (enzyme)

Substance: FadE1 (Pseudomonas aeruginosa PAO1)
Km [3]: 12.29 ± 1.43 µM | Km [4]: 16.36 ± 2.09 µM
